This series concerns the target E1/E2 complex (Bovine papillomavirus type 1) (UniProt P03116+P03122). Put plainly: footprint. The note with it: E1 plus 100 ng E2: equivalent protection of E1 site at 10-fold lower E1 than without E2.
Sequence of UniProt P03116 (P03116 whole entry, chain 1 of 2): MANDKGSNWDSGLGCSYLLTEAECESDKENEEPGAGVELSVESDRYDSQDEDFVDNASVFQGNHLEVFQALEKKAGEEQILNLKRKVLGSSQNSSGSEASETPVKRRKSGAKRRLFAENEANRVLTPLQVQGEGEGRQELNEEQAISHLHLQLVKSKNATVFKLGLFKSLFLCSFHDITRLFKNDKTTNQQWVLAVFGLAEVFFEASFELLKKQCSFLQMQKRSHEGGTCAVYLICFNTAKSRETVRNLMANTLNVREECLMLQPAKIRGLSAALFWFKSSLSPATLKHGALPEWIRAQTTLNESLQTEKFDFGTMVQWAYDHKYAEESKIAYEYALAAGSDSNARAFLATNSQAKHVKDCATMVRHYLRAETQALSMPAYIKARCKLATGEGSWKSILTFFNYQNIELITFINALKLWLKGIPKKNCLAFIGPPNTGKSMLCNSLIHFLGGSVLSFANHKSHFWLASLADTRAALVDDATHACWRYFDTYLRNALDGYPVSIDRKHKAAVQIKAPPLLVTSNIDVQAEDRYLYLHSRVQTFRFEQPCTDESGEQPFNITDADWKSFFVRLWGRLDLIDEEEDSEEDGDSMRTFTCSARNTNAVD
Sequence of UniProt P03116 (P03122 whole entry, chain 2 of 2): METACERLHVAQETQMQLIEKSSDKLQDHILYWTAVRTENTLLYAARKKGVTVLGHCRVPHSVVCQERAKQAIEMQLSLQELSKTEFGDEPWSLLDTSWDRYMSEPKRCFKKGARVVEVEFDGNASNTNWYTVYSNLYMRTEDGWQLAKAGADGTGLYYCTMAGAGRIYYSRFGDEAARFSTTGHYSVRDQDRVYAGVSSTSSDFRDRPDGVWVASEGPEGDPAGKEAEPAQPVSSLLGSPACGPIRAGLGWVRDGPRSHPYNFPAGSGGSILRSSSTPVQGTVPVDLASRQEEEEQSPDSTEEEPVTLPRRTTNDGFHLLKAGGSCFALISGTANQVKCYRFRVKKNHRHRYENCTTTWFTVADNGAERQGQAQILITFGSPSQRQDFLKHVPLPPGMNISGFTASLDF

“ACCGAAACCGGTAAGTAAAGACTATGTATTTTTTCCCAGTGAATANBBRBBRBBNNCNNBNNBCACACCATCACCGTT (double strand) [pKSO BPV origin fragment (7805-100)]”: the binding signal turned out to be 10 fold.

The values are drawn from US5620849.
